Results taken from the NTF2 design screens of Basanta et al. (2020).

Assay: protease stability score; higher = more stable; yeast display proteolysis, trypsin and chymotrypsin;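 note: relative to predicted unfolded state with 0 unfolded-like and 1 meaning tenfold more protease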

| Sequence | protease stability score |
| --- | --- |
| DEEKETAHEIHRILIKAWITGDEDTLNELLDPNVRIDINGVDTHGMEELKRVFEEHKKEIRWKDVRPRHIHVINGQIHSDTDHNGVVNGVTRTRKAHWIIVVIDGKVHSIKFIIH | 1.29 |
| DEEKEVMKELYEMLIHDLLTGNEESLHKLLDPHVKVDIDGKILHGMEATVKWWKEAGADHTDIHSVERQGEKIIINMILRVGDKTLRLHVHIIVVNGRVESIRVELRHE | 1.01 |
| DEEKEYAIRILREFTKYWETGDFERMKELFDPNARLEIGDKRAVGRDKVLEVLLRELHELRFKHFELREEDVIGEKKHSELIVHMEIDGVWHRRNIRVEIVVIDGKIHRMRFEQH | 2.37 |
| DEEKHEALRLTREFLKLFFTGDWEKLVRLIDPDAKVEIGNFESVGRENIAHLLHLLNEEWRINDMRIHSFTVVNGQVRMDTEINGIYGDKNYETRTEIESVVIDGRLKHFSIRER | 1.24 |
| DEEKHEFELLLRLWLRTMETGDEQMSRRLVDPNVRIEIGDKDIHGREEMSRIVRHWRVHDYDIKDSTVQGDKAHLDGHIEGTIDGKTTRFHIHLNLEKINGRWLIKEVVVE | 2.19 |
| DEEKHELEERVRLHIERWKTGDEDTLRHYADPDVRTHIDVGDKKFNYHGREEIVQAYKHLLDQLGVKHSEIDRSTAVNGVVHLHMTLRFDGVRMEWRIDIWIIDGRTKTIHIEIRHR | 0.942 |
| DEEKHILDRYWEEWLHALITGDEERLMELIDPNAKHVFNGKELHGRESLTELLRRLGMEIKDIRDHDLKVIGDKLHIDTRIDGIINGRQTTIRMHIIATKIDGKWVHTKLEVR | 1.23 |
| DEEKHLALFLYRILVKWWLTGNEEDESHLADPHTRFEVNGVELIGRELSSHMIERELREIRVIIEIEEFRTVGDKVDIRLTLKYEYGDKEDSRESHLELIIIDGKTTHVEVRER | 1.6 |
| DEEKHSAEHFMRLWIESFETGDEESIKRLMDPHAKSDFNGVEMHGREYLEVIKREMRVKSSRLHVKHIDVIDGVVIIEGRMILDGEINGVRTRLESDVRFVVEKFDGRWILRSSSIK | 1.31 |
| DEEKKAIRKVWELVIHSLVTGDEDSVEKLLDPHVRVHINGVHLHGMETFRHTFHEWRLEIKSVHIQDMDSINGVARLDISFVGRFKFDGRVEETIIDIHLVVNKINGRWVIEEQKFE | 1.48 |
| DEEKKANHFNKEFDRNVQRNNETELRKMVDPNARVNVGEQNYSGRNKMVKIITDWLRKYDKFTIDVRRIDVHGNRIFIDFEMVVVSNGQRRTTEIRVVVEEHNGRLHIRVWEIT | 1.03 |
| DEEKKDIKHWLEKWITDTRTGDEEEILKMLDPNVRTEQGEFELHGRDALKHYIDRFDHIHEVDLEVKHVTEQGDKLHIKGTLRMDGIVDGVRRTFYFRTILIVRKIDGRWAVSRVILL | 2.32 |
| DEEKKDLDILIEILFEIIYTGNEEKFRELVDPNAKSRVGDKKTHGREDATKLLSKKWRHMRIRTMDVHDFRHYDGQIDVDSRLDGDINGVELLLEVRLILVKYDGRWLIKNIHIQ | 1.43 |
| DEEKKDLERLYELLLRSMFTGDWRALEELMDPNVLLQVNGKELHGWKLMVRVMREIRIEDHEVKHIELQGDKIHMDTRTHGEFDGRTDTTKTHVLAKKVDGQWRLKHYKID | 0.932 |
| DEEKKDVHKIWELFVEHYYTGDEEFLHRMADPNVRSDVNGKELHGRESLLSLMREWIDRADVIQHIDVEDRRIQGDKAYIRTRFVGLVNGKPVSTDVTIILSKVNGQWFMHRIVIK | 1.61 |
| DEEKKEILEIARRVIESLLTGDWEEDHELADPNVLYIQGDKEVHGMETTWRIIFELRHQIKGMTEHIHIRRVEIVNGVAHLDTELRLNVNGREVTHETHVHIFLYNGRVKRIEVRIK | 1.48 |
| DEEKKEIQKAVDLMRHLLVTGDENTLHHLLDPNVRLIVGDKFFHGREELIRVWSEEIESMGFDHVEMHVRHVRVIGDKADVQMEIRFDVNGREHSREFRVRLRKIDGQWVIKSIEIR | 2.15 |
| DEEKKEQRHFLKKLADSIATGDEESLEKMVDPNAKSVVNGVEQHGMELMVENLREWLERLGVTKISFHEKRFRLIGNKLEVDGTIEVNGKKFESHFIVEKVDGQWRIREIRLH | 0.931 |

| Sequence | protease stability score |
| --- | --- |
| DEEKKEVNRIFELWARLFETGDEDSIHRLLDPNARLEVNGQEIHGRHNISRTFLEFKERFKGIKIELILREVRVIGDKVHIHSELRVNINGREESFETDIDLVVIDGKLHSFRFHVH | 2.48 |
| DEEKKFIHYLAHLLIELILTGDEDTFEKLADPDVRLSIFAENHELHWHGREEVLRELIHWTRRVDHIHMKLDHSRIINGKSHMDGNLVDIQGDKKIEKKVTVILVVVNGKVKRIEIWIG | 1.47 |
| DEEKKFYIKLFELFWRAWLTGNEQFLLEMADPNVKVEYTYNGRDVRTHGRETMYTFLHEILRYLGVKHSRLRRDEFQGDKVHLDVEEHFNGRTVKTLIIIDVVDGRLEIDKFHTT | 0.705 |
| DEEKKKFEHWVKLVIHALLTGDEKHLNDMADPNVKVRSVFNGRHVELHGRENEHRWLEKLRKRLGVDHIEITDSVIQGDKVEIDSRYIQGDKEFKSSIHIVVVNGRTHENEFIFH | 1.1 |
| DEEKKLAHKIARILMDLFLTGNEEVWKELMDPHVKFEIGDFIDHGWEAVKRYYEVLGFDHIQETDLESIVIFENHVILHIRIHGEVNGRQVDTTVTLFIEKINGKWYIRTIRIH | 2.5 |
| DEEKKLMLESMKQTLDKIFTGDFDSTAEYLDPHARYIIGDKTLHGMERWKEFLDRFDHVHIHDVKLHSVRIIDGVAILDGRIDTEIIINGVRIRETVEVQIVIVKVNGRWKDERVEFK | 0.13 |
| DEEKKLSDFAFRLLEENLRTGNEDDIRRYADPSVKIEVGDKTIHGMEAVSRVITEWRVHDLKIEREEIQGNKVHIDSNIDGQVGEKREHSLLILIMVKVNGRWVIKSIRIH | 0.386 |
| DEEKKLYHHIWDRLRRALETGNEEELHKLADPDVRVIIGDKHFHGRDELYRLTEEIRVVITEIRLHDKDHQGDKVILDVEERVNVQVDGKETEYRFRSTLYFVKINGRWTLRRIELK | 1.52 |
| DEEKKNIERLTEILAHVIRTGDEESWERMMDPNARATQGDKVMVGRDLLEHLWRRIDVIDHVRLEPKHVHRQGDKIHIDVENEVHGTVNGVKISEKHKEILVIYKFDGRWHFHSIEIT | 0.064 |
| DEEKKQVKDMMELYFRLFVTGNEEILTHLADPDTRIEIDGVSRVGMEEFKRMLEEYLKRLGADHIELRHWDIKFFNGRAINRLHIHIHYGDKSEDVRVTLILEKIDGRWRNRSEHREVG | 0.771 |
| DEEKKSSDIAIHESLRVLKTGDEHDISEMMDPHVRIDINGREIIGMELASEIHHEIMNRIKNVRIEVKDRKLVNGQIILRGELRWNGQTVELEVTLKKINGKWWMESLHVR | 0.606 |
| DEEKKVAMELAILLFHLWLTGDEETERRLADPDTRMDVDGKDIIGREELSKVWERILKEMRFDRWEVDRVDVVNGQVHLHGHIRGKYNGKEETREIEITINIVNGRLKSVHFNLR | 1.87 |
| DEEKKVAQTFLELLYRAIHTGDEDEIRRMMDPNYRMEINGKEFHGREDIVHRLVRIEKHLGFKHFHIKDMRTVGDKIDLHTEVIIGDFRWDVHIHIEKVNGRWLQTERRIE | 0.521 |
| DEEKNLIIELVHLFLVAFWTGNEELLRHLADPDVRFEIDGREHHGREELEKHLEHWWMKIEHIEEKEIRVIDGRVHIDGHVRGTLIINGRENRISYDVEIHAEVIDGRFKYVKVKQK | 2.48 |
| DEEKQDMDTAIKIFVEEYKTGDEENLLRNMDPEARVRQGDKHFHGREEVWKFWRRLFHDAGLDNVNVELRHITSQGNKIEVRGVLRIGDKELDVEFILKKVDGRWLIKFILFR | 1.91 |
| DEEKRDAREFLHLLFHAMITGDEDLVRHLADPHVKLDVNGRELHGWELFLTWFKRLLEEIRLTDIDVHHIELQGNKIILDTRLHVRVGDKEVDIHTEFHVVKVNGKWRLKTMRTE | 2.61 |
| DEEKRDVDDAKEVWDRIFKTGDEHQLERNFDPNVRQHIDGREHVGREEFRKEFHKILLLLGVKHLRIEFHDEEYQGDKIILRGTLFFEVNGRIEIWIVTIIARKVNGQWLVHTVHHN | 0.425 |
| DEEKRFHHKLLRLFLESFLTGDWRLWYKLADPNARFHAPNHESHGREEVVEMIFKWLKQYDHVEIRIHDVRYYNGQIRMDVELHFRQGDKETSTKLDLILIVVDGRITEVHFDVR | 0.916 |
